The values that follow come from article PMC11967829, “Nudix Hydrolase 13 Impairs the Initiation of Colorectal Cancer by Inhibiting PKM1 ADP‐Ribosylation” (Advanced Science, 2025).

First the molecules themselves.
B2: purified recombinant PKM1 (natural protein)
chain: not shown
notes: PKM1, the M1 splice isoform of pyruvate kinase M (PKM); also called purified PKM1; source: purified recombinant

Test [1] addresses B2. Briefly: pull-down; in vitro pull-down of N13 peptide with purified PKM1 or PKM2, Coomassie blue staining (Figure 7D). The settings on record: both partners purified.
The target of test [2] is T1, recombinant human PARP1 (human, UniProt P09874 1-1014).
T1 construct: PARP1 (poly ADP-ribose polymerase 1), human, recombinant; The source is named for the in vitro PARylation assay; source: bought: Sino Biological
T1 sequence (P09874 whole entry): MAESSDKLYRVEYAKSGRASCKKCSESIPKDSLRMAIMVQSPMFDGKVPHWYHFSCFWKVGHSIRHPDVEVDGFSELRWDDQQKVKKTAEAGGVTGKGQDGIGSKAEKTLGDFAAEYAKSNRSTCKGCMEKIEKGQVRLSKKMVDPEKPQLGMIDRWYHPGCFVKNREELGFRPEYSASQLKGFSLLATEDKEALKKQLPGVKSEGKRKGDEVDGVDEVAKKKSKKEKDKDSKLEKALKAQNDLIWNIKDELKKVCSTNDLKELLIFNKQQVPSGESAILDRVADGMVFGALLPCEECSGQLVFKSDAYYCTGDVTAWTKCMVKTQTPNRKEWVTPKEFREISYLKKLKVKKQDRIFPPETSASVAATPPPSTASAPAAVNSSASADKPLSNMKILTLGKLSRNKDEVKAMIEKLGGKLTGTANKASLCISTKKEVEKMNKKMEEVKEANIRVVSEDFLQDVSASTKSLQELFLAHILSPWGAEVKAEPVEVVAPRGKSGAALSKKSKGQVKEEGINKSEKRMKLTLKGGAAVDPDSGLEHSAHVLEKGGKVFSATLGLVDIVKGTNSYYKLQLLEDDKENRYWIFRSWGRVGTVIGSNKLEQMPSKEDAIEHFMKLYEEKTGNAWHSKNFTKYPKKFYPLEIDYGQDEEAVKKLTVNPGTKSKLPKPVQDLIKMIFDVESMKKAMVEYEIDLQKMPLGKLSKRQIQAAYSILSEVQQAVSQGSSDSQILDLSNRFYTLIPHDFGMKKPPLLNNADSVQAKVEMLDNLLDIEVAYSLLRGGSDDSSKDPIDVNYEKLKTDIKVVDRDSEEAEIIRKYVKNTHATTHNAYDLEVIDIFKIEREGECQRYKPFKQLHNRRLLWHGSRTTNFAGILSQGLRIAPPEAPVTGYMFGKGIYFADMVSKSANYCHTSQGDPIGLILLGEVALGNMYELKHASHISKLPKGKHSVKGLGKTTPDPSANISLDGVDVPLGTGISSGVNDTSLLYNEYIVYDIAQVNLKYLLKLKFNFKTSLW
Briefly: pull-down; in vitro pull-down of PKM1 and PARP1 (Figure 5E). As to conditions: both partners purified.

B1: N13 peptide (mimic peptide of NUDT13 230–252 AA) (peptide, UniProt Q86X67 230-252, looked up)
peptide: GFCDIGESVEETIRREVAEEVGL
notes: The peptide was synthesized conjugated with the membrane-penetrating peptide iRGD (N13-iRGD); also called N13-iRGD; source: synthetic peptide
Take B1: in test [1], the binding result was “binds”. B2: the binding result in test [2] is “binds”.
